Source: patent US20240148828A1

Target: NKG2D on human γδ T cells (human) (UniProt P26718)
Experiment: cell-based or functional assay

Chain of NKG2D on human γδ T cells (human) (P26718 whole entry, stated change not applied): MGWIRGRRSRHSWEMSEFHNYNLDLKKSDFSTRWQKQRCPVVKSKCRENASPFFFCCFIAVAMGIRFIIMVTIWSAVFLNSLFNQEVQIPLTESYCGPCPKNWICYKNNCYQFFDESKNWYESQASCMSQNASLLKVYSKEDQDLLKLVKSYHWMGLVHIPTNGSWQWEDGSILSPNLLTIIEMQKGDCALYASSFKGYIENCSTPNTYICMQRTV

Row | frequency of Vγ9+ T cells expressing CD107a (plate-bound, together with BTN2A1/3A1-Fc-CD19scFv) [% γδ T cells] | Substance
1 | 18 | MICA-Fc fusion protein (from UniProt Q29983 24-307)
2 | 18 | MICB-Fc fusion protein (from UniProt Q29980 23-298)
3 | 30 | anti-NKG2D antibody (Clone #149810, R&D Systems)
